Laboratory results from IntAct's records for PubMed 21139564.

B1: Eukaryotic initiation factor 4F subunit p150 (Saccharomyces cerevisiae), P39935 (parent)
chain: MTDETAHPTQSASKQESAALKQTGDDQQESQQQRGYTNYNNGSNYTQKKPYNSNRPHQQRGGKFGPNRYNNRGNYNGGGSFRGGHMGANSSNVPWTGYYNNYPVYYQPQQMAAAGSAPANPIPVEEKSPVPTKIEITTKSGEHLDLKEQHKAKLQSQERSTVSPQPESKLKETSDSTSTSTPTPTPSTNDSKASSEENISEAEKTRRNFIEQVKLRKAALEKKRKEQLEGSSGNNNIPMKTTPENVEEKGSDKPEVTEKTKPAEEKSAEPEVKQETPAEEGEQGEKGQIKEESTPKVLTFAERLKLKKQQKEREEKTEGKENKEVPVQEETKSAIESAPVPPSEQVKEETEVAETEQSNIDESATTPAIPTKSDEAEAEVEAEAGDAGTKIGLEAEIETTTDETDDGTNTVSHILNVLKDATPIEDVFSFNYPEGIEGPDIKYKKEHVKYTYGPTFLLQFKDKLNVKADAEWVQSTASKIVIPPGMGRGNRSRDSGRFGNNSSRGHDFRNTSVRNMDDRANSRTSSKRRSKRMNDDRRSNRSYTSRRDRERGSYRNEEKREDDKPKEEVAPLVPSANRWVPKFKSKKTEKKLAPDGKTELLDKDEVERKMKSLLNKLTLEMFDAISSEILAIANISVWETNGETLKAVIEQIFLKACDEPHWSSMYAQLCGKVVKELNPDITDETNEGKTGPKLVLHYLVARCHAEFDKGWTDKLPTNEDGTPLEPEMMSEEYYAAASAKRRGLGLVRFIGFLYRLNLLTGKMMFECFRRLMKDLTDSPSEETLESVVELLNTVGEQFETDSFRTGQATLEGSQLLDSLFGILDNIIQTAKISSRIKFKLIDIKELRHDKNWNSDKKDNGPKTIQQIHEEEERQRQLKNNSRSNSRRTNNSSNRHSFRRDAPPASKDSFITTRTYSQRNSQRAPPPKEEPAAPTSTATNMFSALMGESDDEE
partner: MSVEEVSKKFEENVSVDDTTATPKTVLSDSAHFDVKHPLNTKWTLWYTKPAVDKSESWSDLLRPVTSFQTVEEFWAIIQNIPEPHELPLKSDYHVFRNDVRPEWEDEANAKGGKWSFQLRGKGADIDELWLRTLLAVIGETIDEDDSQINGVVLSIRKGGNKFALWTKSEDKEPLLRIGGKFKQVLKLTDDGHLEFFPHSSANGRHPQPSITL

Variants of: B1
Conditions: with if4e_yeast CDC33, P07260

effect of a mutation on the interaction	Variant
decreasing interaction strength	V213A;K214A;L215A;R216A;L457A;L458A
decreasing interaction	L457A;L458A
